Earlier results, collected in PMC9914670.

Key:
[1] = molecular target: ATP5B (F1 ATPase beta subunit) (Homo sapiens) (UniProt P06576); assay: ELISA
[2] = molecular target: ATP5A1 (F1 ATPase alpha subunit) (Homo sapiens) (UniProt P25705); assay: ELISA
[3] = molecular target: ATP5A1/5B complex (Homo sapiens) (UniProt P25705); assay: ELISA
[4] = molecular target: TLR4/MD2 complex (Homo sapiens) (UniProt O00206); assay: QCM
[5] = molecular target: ATP5A1/5B complex (Homo sapiens) (UniProt P25705); assay: QCM

Chain of Prothymosin alpha (P06302 2-112): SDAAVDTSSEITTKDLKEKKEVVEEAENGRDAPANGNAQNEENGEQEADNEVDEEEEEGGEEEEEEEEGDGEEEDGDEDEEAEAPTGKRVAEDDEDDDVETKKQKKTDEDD
Chain of ATP5A1/5B complex (Homo sapiens) (P25705 44-553, chain 1 of 2): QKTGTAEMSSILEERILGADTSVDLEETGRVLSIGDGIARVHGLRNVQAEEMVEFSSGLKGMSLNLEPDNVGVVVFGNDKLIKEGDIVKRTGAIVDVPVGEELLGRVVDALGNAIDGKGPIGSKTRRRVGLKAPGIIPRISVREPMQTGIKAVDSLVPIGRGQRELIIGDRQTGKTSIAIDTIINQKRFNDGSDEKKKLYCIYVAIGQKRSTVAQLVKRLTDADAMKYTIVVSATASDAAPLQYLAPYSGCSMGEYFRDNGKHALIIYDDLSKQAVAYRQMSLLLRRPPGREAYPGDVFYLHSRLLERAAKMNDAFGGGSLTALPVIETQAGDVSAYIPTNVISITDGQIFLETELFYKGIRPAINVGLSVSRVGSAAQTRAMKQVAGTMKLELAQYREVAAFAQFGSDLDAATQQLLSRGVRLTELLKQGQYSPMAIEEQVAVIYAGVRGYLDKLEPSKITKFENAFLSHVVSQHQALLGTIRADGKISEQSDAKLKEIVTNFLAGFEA
Chain of ATP5A1/5B complex (Homo sapiens) (P06576 48-529, chain 2 of 2, further chain): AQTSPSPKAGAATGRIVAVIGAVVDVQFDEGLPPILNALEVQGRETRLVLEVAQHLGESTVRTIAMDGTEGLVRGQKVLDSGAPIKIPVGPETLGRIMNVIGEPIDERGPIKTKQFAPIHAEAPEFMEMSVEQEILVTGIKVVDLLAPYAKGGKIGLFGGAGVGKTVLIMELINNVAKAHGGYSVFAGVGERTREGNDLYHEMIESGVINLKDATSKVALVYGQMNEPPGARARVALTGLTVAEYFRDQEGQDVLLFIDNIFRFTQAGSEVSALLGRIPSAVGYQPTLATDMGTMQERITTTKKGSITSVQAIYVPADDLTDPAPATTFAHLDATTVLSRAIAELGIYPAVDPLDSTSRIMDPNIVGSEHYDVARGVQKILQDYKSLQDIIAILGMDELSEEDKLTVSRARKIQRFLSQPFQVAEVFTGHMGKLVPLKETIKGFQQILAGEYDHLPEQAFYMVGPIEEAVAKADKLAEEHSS
Chain of ATP5A1 (F1 ATPase alpha subunit) (Homo sapiens) (P25705 44-553): as the sequence (P25705 44-553, chain 1 of 2) above
Chain of ATP5B (F1 ATPase beta subunit) (Homo sapiens) (P06576 48-529): as the sequence (P06576 48-529, chain 2 of 2, further chain) above
Chain of TLR4/MD2 complex (Homo sapiens) (O00206 24-839, chain 1 of 2): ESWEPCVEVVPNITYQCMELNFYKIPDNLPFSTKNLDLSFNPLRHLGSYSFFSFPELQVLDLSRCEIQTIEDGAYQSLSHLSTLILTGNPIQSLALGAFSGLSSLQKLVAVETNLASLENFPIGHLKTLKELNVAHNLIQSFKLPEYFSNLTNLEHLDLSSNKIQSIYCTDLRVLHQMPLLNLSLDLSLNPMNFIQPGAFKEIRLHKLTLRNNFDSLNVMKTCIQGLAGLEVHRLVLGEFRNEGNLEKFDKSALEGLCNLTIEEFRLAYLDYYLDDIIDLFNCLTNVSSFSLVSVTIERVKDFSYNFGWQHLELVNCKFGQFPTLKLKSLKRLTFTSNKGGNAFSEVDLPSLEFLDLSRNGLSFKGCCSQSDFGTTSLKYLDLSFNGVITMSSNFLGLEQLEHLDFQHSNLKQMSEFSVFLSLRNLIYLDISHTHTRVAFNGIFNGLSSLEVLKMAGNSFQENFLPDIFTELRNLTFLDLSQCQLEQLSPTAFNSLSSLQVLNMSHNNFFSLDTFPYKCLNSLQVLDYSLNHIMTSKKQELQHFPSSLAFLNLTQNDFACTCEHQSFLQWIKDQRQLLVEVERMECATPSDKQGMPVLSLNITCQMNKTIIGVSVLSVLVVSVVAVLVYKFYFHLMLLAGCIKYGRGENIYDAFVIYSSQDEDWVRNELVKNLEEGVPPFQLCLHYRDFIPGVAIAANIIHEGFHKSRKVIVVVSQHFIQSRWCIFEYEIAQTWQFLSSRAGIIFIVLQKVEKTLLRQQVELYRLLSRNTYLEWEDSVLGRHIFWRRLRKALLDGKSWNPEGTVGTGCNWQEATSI
Chain of TLR4/MD2 complex (Homo sapiens) (Q9Y6Y9 19-160, chain 2 of 2, further chain): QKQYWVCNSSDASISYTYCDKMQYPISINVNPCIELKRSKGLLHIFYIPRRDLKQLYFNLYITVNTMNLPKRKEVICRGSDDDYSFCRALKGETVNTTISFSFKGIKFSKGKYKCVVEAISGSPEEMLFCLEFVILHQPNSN

- Kd [1]: 241 nM
- Kd [2]: 68 nM
- Kd [3]: 55.8 nM
- Kd [4]: 16100 nM
- Kd [5]: 28.1 nM
Substance: Prothymosin alpha (from UniProt P06302)
